For one data set, the system named is AAV-HBV transduced mice. Description: Viral DNA and HBsAg antigen in mouse AAV-HBV model (replicated experiment). Format: in vivo.
The procedure of data set [1]:
Throughout the course of this experiment, weekly body weights were obtained for each animal. In addition, the animals were monitored for an increase in ALT enzyme activity as a sign of liver damage. Plasma samples from d0, d7, d21, and d35 were assayed for levels of ALT with ALT Activity Assay Kit (Sigma Chemical Co., MAK052).

The test system of the next data set is HBV. In words: AAV-HBV mouse model for chronic HBV infection: viral DNA, HBsAg, anti-HBsAg seroconversion. It counts as in vivo. The protocol:
C57BL/6 mice were transduced with AAV8-HBV1.2 vector and sorted into treatment groups (n=10). Animals received 0.5 mg/dose of ASGR1-TLR8-S, 0.5 mg of unconjugated mASGR1 mAb or vehicle, sc QWx5 beginning d0 (black arrows). In FIG. 8A, dotted line is LLOQ for HBsAg ELISA. In FIG. 8B, average plasma anti-HBsAg IgG was determined by ELISA. p-values determined by T-test by comparison to vehicle group.
An in vivo mouse model for chronic HBV to examine the therapeutic effect of ASGR1-TLR8 agonists of the instant disclosure. […] Like TLR8 in humans, and in contrast to TLR7 in humans, TLR7 in mice is expressed in myeloid cells, like macrophages. Thus, for in vivo murine experiments, an anti-ASGR1-TLR7 agonist conjugate was generated as a surrogate for human anti-ASGR1-TLR8 agonist conjugates. In addition, the anti-human ASGR1 antibody 4F3 was “murinized” so as to bind to mouse ASGR1.
On day 0 animals were sorted into viral load-balanced treatment groups of 10. […] The experiment was ended on day 35. Weekly plasma samples were assessed for viral DNA and antigens, including samples from post-transduction (i.e., infection) but pre-treatment. HBV DNA in mouse plasma was isolated with QIAAMP® 96 DNA Blood Kit following the manual and quantified by qPCR. The standard curve DNA of 10^7 copies/μL was prepared by 60-fold dilution of 5 ng/μL pAAV2-HBV1.3 plasmid DNA, then serially diluted 10-fold with AE buffer from 10^7 to 10 copies/μL. A 2 μl volume from samples was added to standard qPCR assay mixtuRes. The PCR mixture and samples or plasmid DNA standard were added to 384-well optical reaction plates. PCR was run at 95° C. for 10 min for 1 cycle, at 95° C. for 15 sec, 60° C. for 1 min for 40 cycles. HBsAg plasma levels were determined by ELISA assay using HBsAg ELISA kit (Autobio) according to the manual.

In data set [2] the test system is B cells in human PBMC and ASGR1pos target cell co-culture. Description: CD86 on CD19pos B cells in human PBMC and ASGR1pos target cell co-culture (FACS). It counts as cell-based. The following applies: 10 nM, 24 or 48 hours; FIG. 9 and FIG. 11. How it is done:
Normal human donor PBMCs were co-cultured with cell lines expressing ASGR1 (ASGR1^pos) or not (ASGR1^neg) in the presence of 10 nM of either anti-ASGR1-TLR8 conjugate, the unconjugated antibody, an anti-digoxigenin-TLR8 conjugate or no treatment. After 24 or 48 hours of incubation, cells were harvested and processed for FACS analysis (BD FACSCelesta™ Flow Cytometer) by standard procedures for washing and incubation with immune cell lineage antibodies, that included anti-CD19 antibody to identify B cells, and antibodies to detect levels of cell activation molecules, including anti-CD86 antibody.

The next data set concerns CD19^pos B cells. In words: CD86 on CD19pos B cells after PBMC co-culture (flow cytometry). Format: cell-based, human. The settings on record: co-culture of PBMC with ASGR1^pos cells, 10 nM, 24 and 48 hours. The protocol: FIG. 9 is a pair of graphs showing that ASGR1-TLR8 increases B cell expression of CD86, an activation marker indicative of increased antigen presentation and IgG secretion. CD86 levels on CD19^pos B cells were determined by flow cytometry after co-culture of PBMC with ASGR1^pos or ASGR1^neg cells in presence of test articles at 10 nM at 24 hours (left) and 48 hours (right). This ASGR1-TLR8 contains a mouse-human chimeric anti-ASGR1 antibody.
ASGR1-TLR8 conjugate activation increases B-cell expression of CD86, an activation marker indicating increased antigen presentation and IgG secretion. Abbreviations: monoclonal antibody (mAb), positive (pos), negative (neg), mean fluorescence intensity (MFI), hours (hrs). This ASGR1-TLR8 conjugate contains a humanized anti-ASGR1 antibody and has a DAR4.
(In general: Flow cytometry measures light scatter and fluorescence of single cells or particles in a stream.)

In data set [3] the test system is NK cells, CD8+ T cells and CD4+ T cells in human PBMC and ASGR1pos target cell co-culture. In words: IFNγ on NK cells, CD8+ and CD4+ T cells in human PBMC and ASGR1pos target cell co-culture (FACS). It counts as cell-based. The settings on record: 10 nM, 24 or 48 hours; FIG. 10. How it is done:
Normal human donor PBMCs were co-cultured with cell lines expressing ASGR1 (ASGR1^pos) or not (ASGR1^neg) in the presence of 10 nM of either anti-ASGR1-TLR8 conjugate, the unconjugated antibody, an anti-digoxigenin-TLR8 conjugate or no treatment. After 24 or 48 hours of incubation, cells were harvested and processed for FACS analysis (BD FACSCelesta™ Flow Cytometer) by standard procedures for washing and incubation with immune cell lineage antibodies, that included antibodies to detect levels of cell activation molecules, including anti-IFNγ antibody.

The conditions of data set [4]: defined from liver payload PK after SC doses. The source says:
Subcutaneous (SC) doses assessed are similar to those in FIGS. 6A and 6B. Liver payload PK was used as measure of conjugate uptake.
SC doses assessed are similar to those in FIGS. 6A and 6B. Liver payload PK was used as measure of conjugate uptake.

Where [5] appears, read: 0.5 mg subcutaneous once a week for 5 weeks.

Entries after “also recorded” stand apart in the source; their conditions may differ.

B1: ASGR1-TLR8-S: "The surrogate (i.e., murinized ASGR1 mAb-C (having 4F3 CDRs)-IgG2a conjugated to a TLR7 agonist Compound 4.1)" (conjugate)
heavy: EVKLVESGGGLVKPGGSLKLSCAASGFTFSSYAMSWVRQTPEKRLEWVSAISGSGGSTYYADSVKGRFTISRDNAKNTLYLQMSSLRSEDTAMYYCAKDFSSRRWYLEYWGQGTTLTVSSAKTTAPSVYPLAPVCGDTTGSSVTLGCLVKGYFPEPVTLTWNSGSLSSGVHTFPAVLQSDLYTLSSSVTVTSSTWPSQSITCNVAHPASSTKVDKKIEPRGPTIKPCPPCKCPAPNLLGGPSVFIFPPKIKDVLMISLSPIVTCVVVDVSEDDPDVQISWFVNNVEVHTAQTQTHREDYNSTLRVVSALPIQHQDWMSGKEFKCKVNNKDLPAPIERTISKPKGSVRAPQVYVLPPPEEEMTKKQVTLTCMVTDFMPEDIYVEWTNNGKTELNYKNTEPVLDSDGSYFMYSKLRVEKKNWVERNSYSCSVVHEGLHNHHTTKSFSRTPGK
light: QAVLTQEPALSVSLGQTVTLTCQGDSLRSYYASWYQQKPGQAPVLVIYGKNNRPSGVPARFSGSLIGDKAALTITGAQTEDEAIYYCNSLERIGYLSYVFGGGTKVTVLRADAAPTVSIFPPSSEQLTSGGASVVCFLNNFYPKDINVKWKIDGSERQNGVLNSWTDQDSKDSTYSMSSTLTLTKDEYERHNSYTCEATHKTSTSPIVKSFNRNEC
modifications: conjugated to TLR7 agonist Compound 4.1; Synthetic sequence mzASGR1 mAb-C Heavy Chain (VH-IgG2a); Synthetic sequence mzASGR1 mAb-C Light Chain (VL-kappa)
For B1, the HBsAg antigen entry in the data set with AAV-HBV transduced mice (FIG. 8A) was “significantly lowered”. Besides, the “viral DNA” value in the data set with AAV-HBV transduced mice (data not shown) was “significantly lowered”. Besides, in data set [1] (setting [5]), the Body weight entry is on record as “gained weight like control animals”. In addition, the ALT enzyme activity result in data set [1] (plasma d0, d7, d21, d35) is on record as “no increase”. In addition, in the data set with HBV (setting [5]), the “HBsAg antigen in plasma” value is “significantly lowered; also recorded: reduces” and the “Viral DNA in plasma” value is listed as “significantly lowered”. In addition, the Anti-HBsAg seroconversion result with HBV (0.5 mg/dose sc QWx5) is “drives seroconversion”.

B2: ASGR1-TLR8: This ASGR1-TLR8 contains a mouse-human chimeric anti-ASGR1 antibody (conjugate)
heavy: B1 heavy
light: B1 light
modifications: TLR8 agonist conjugated; Synthetic sequence mzASGR1 mAb-C Heavy Chain (VH-IgG2a); Synthetic sequence mzASGR1 mAb-C Light Chain (VL-kappa)
notes: This ASGR1-TLR8 contains a mouse-human chimeric anti-ASGR1 antibody
Consider B2, for which the “levels of CD86 on CD19pos cells (MFI)” value in data set [2] is reported as “B cells were activated”. Further, the “B cell expression of CD86” value in the data set with CD19^pos B cells is recorded as “increases”. In addition, in data set [3], the “levels of IFNγ on NK cells, CD8+ T cells and CD4+ T cells (MFI)” value is “drives an IFNγ response”.

B3: ASGR1-S: a mouse conjugate surrogate for an ASGR1-TLR8 conjugate intended for therapeutic use in a human (conjugate)
heavy: B1 heavy
light: B1 light
modifications: conjugated to TLR agonist Compound 4.1; Synthetic sequence mzASGR1 mAb-C Heavy Chain (VH-IgG2a); Synthetic sequence mzASGR1 mAb-C Light Chain (VL-kappa)
notes: a mouse conjugate surrogate for an ASGR1-TLR8 conjugate intended for therapeutic use in a human
With B3, the “Target payload liver concentration” value in data set [4] is reported as “approximately 100 ng/g”. Further, the “Seroconversion in the AAV-HBV model” value in the data set with HBV (at 5 mg/kg and 10 mg/kg) is “observed in some animals”.

(Values after US11541126B1, “Anti-ASGR1 antibody TLR8 agonist comprising conjugates and uses thereof” (Silverback Therapeutics, Inc., priority 2020, dated 2023).)
